Sequences and labels used below:
B1: 453-01-B07 (peptide)
peptide: VPFCDLLTKHCFEA
notes: also called TN8-01-B07
B2: DX221 (peptide)
peptide: Ac-WTDSLTGLWFPDGGPGPEGGGK
modifications: also: fluorescein-labeled, site not given here
notes: synthetic
B3: 453-02-B05 (peptide)
peptide: VHYDSLTKMWTR
notes: also called PhD-02-B05
B4: 453-01-G11 (peptide)
peptide: LNACDIVHPNYCSGM
notes: also called TN9-01-011
B5: 453-01-H05 (peptide)
peptide: GGNCYTDSLTKLHFCMGD
notes: also called TN12-01-H05
B6: 453-02-B02 (peptide)
peptide: GIYDKLTRAWLP
notes: also called PhD-02-B02
B7: 453-02-C12 (peptide)
peptide: GYDVLTKLYFVP
notes: also called PhD-02-C12
B8: 453-01-G06 (peptide)
peptide: FHPCDMLTGIWCQPN
notes: also called TN9-01-G06
B9: 453-01-A08 (peptide)
peptide: KEPCYFYWECAVS
notes: also called TN7-01-A08
B10: 453-01-D11 (peptide)
peptide: AMKCYFPWECANG
notes: also called TN7-01-D11
B11: 453-02-D05 (peptide)
peptide: YFDQLTHLSIKK
notes: also called PhD-02-D05
B12: 453-01-C08 (peptide)
peptide: HVDCLLHPKACYKY
notes: also called TN8-01-C08
B13: 453-01-B04 (peptide)
peptide: KSKCFFPWECQQA
notes: also called TN7-01-B04
B14: 453-02-C04 (peptide)
peptide: WTDSLTGLWFPD
notes: also called PhD-02-C04
B15: 453-01-F05 (peptide)
peptide: SRLCHMDELTHVCVHF
notes: also called TN10-01-F05
B16: DX876 (peptide)
peptide: Ac-WYDPLTKLWLGGK(FITC′)
notes: synthetic

This is an account of results in patent publication US20030194743A1 (DYAX, published 2003).

Primed or numbered codes have the meaning given here. No end group written: not given here. FITC′ = fluorescein label (fitc)

In the first test the target is T1, B lymphocyte stimulator protein (BLyS) (UniProt Q9Y275 134-285, biotinylated (b-BLyS) in phage screening and phage ELISA; unlabeled in fluorescence anisotropy and column tests).
T1 construct: also called b-BLyS; biotinylated recombinant BLyS
T1 sequence (Q9Y275 134-285 limits assumed): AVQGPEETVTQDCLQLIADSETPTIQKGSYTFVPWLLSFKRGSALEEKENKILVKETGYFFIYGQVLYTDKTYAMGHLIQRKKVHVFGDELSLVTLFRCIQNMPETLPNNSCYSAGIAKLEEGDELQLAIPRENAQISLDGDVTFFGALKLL
As to the kind of experiment: not stated at this place (fluorescence anisotropy elsewhere); reference in indirect phage ELISA. Background: Polarisation of emitted light reports the rotation of a fluorescent probe.
One may read the Kd as the free concentration of one partner at which half of the binding sites on the other are occupied at equilibrium, for simple one-to-one binding. A higher Kd goes with weaker binding. Take B1: the Kd worked out at 700 nM.

Another test addresses T1, B lymphocyte stimulator protein (BLyS). As to the kind of experiment: fluorescence anisotropy.
In turn, B2 returned a Kd of 3000 nM.

For the next test the target is unchanged. As to the kind of experiment: phage ELISA on biotinylated BLyS.
In turn, B3 displayed an ELISA signal of 0.6 OD630.

In turn, B1 gave an ELISA signal of 1.4 OD630.

In turn, B4 came in with an ELISA signal of 0.8 OD630.

Consider B5, for which the ELISA signal turned out to be 1 OD630.

With B6, the ELISA signal turned out to be 0.6 OD630.

B7 displayed an ELISA signal of 0.8 OD630.

Regarding B8, the ELISA signal was found to be 1.2 OD630.

Turning to B9, the ELISA signal was determined as 1.2 OD630.

For the molecule B10, the ELISA signal stood at 1 OD630.

B11 showed an ELISA signal of 0.8 OD630.

Take B12: the ELISA signal is 1.2 OD630.

In the case of B13, the ELISA signal was determined as 0.8 OD630.

The molecule B14 gave an ELISA signal of 1 OD630.

In turn, B15 returned an ELISA signal of 1 OD630.

For the next test the target is unchanged. The test is described as follows: fluorescence anisotropy. This is another data set of the same source.
As to B16, binding was put at a Kd of 171 nM. This lies in the sub-micromolar range.
